Legend:
[1] = substrate: CC(=O)N[C@H]1[C@@H](OP(=O)(O)OP(=O)(O)OCCCCCCCCCCCOc2ccccc2)O[C@H](CO)[C@@H](O)[C@@H]1O[C@H]1O[C@H](C)[C@@H](O)[C@H](O)[C@@H]1O; assay: cells, lysate or membranes; settings: donor GDP-D-[^3H]Rha, 5 mM MnCl2, Tris pH 9, 37 °C
[2] = substrate: C[C@H]1O[C@H](OCc2ccccc2)[C@@H](O)[C@@H](O)[C@@H]1O; assay: cells, lysate or membranes; settings: donor GDP-D-[^3H]Rha, 5 mM MnCl2, Tris pH 9, 37 °C

B1: His6-WbpX (Pseudomonas aeruginosa) (protein)
chain: MTRLLVECTYVFEHPKVNSGIQRVVRNVIRELPEADETVECIPVAMLDGTLYQVHSLAPLDPRPHSPLVRLRILVERAANYFWLGQRTLEKRRPFRSSPWARRLLYVACRLFAFAFLSIPLRLLDRILGKQQPAPVRATPLEHRAGDQLVLLDSSWHADFFPLAERLKSEGVGIVSVIYDLIPLTHPQFCDAGLVKVFNHWFDWIAATADGYVAISETIRDEVRAEMLRRIGPEKVAQRWFDYFHLGSELDLVEDGASVEPDLLRMFKAKAPVFLMVSTIEPRKNHGYLLDAFERAWAQGSQARLCIAGRIGWKCEALVERVRQHPELNKRLFMFNDLSDKSLEYAYSHAASLVFPSYVEGFGLPLVEAMQRGLPAMGSDIPVFREIGGEFMAYFDLADPQTLANLVTRFEATGEFPAERPVGEWRWIGWHEASRQLIARILLALGKAPAHGEAVHADCG
- Km [1]: 220 µM
- Km [2]: 21 µM
